System: T1, PhosFluor (the fluorescent protein having the amino acid sequence set forth in SEQ ID NO: 10)
T1 sequence: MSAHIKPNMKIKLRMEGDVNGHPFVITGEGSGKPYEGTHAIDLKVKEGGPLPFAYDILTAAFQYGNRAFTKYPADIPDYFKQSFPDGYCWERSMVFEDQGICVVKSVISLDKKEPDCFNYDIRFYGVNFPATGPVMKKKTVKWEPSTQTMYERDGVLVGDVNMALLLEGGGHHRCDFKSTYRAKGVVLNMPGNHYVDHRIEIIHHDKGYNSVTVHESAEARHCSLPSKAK

Chain of Akt1 (P31749 whole entry): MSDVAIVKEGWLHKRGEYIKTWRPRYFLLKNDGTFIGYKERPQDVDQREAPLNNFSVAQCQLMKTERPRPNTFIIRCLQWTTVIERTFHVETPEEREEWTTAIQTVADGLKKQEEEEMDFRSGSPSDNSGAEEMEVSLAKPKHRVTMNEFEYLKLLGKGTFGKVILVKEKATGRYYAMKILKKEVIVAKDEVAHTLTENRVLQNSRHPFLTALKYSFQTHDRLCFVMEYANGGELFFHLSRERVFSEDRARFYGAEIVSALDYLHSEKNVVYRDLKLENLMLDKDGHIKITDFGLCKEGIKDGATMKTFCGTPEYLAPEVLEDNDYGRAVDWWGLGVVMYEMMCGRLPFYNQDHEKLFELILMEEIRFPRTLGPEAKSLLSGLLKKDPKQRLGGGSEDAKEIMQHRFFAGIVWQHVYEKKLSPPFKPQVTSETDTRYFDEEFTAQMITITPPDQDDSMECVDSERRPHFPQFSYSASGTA

Row | Substance | Western blot analyses of phosphorylation | emission spectrum of PhosFluor | also measured
1 | mitogen-activated protein kinase (MAPK) | serine and threonine sites on PhosFluor are phosphorylated by PKA, PKC, mitogen-activated protein kinase (MAPK), cell division control protein 2 (cdc2), and Akt1 |  | fluorescence intensity of PhosFluor incubated with kinase: The fluorescence intensity of PhosFluor also increased above background levels when the protein was incubated with cdc2 and MAPK (data not shown)
2 | PKA | serine and threonine sites on PhosFluor are phosphorylated by PKA, PKC, mitogen-activated protein kinase (MAPK), cell division control protein 2 (cdc2), and Akt1 | A marked shift in the emission spectrum of PhosFluor was observed when this molecule was incubated with PKA, PKC or Akt1 | upward shift of apparent molecular weight on SDS-PAGE: To a lesser extent, higher molecular weight species were also observed upon phosphorylation by PKA
3 | Src |  |  | SDS-PAGE and immunoblot of PhosFluor incubated with kinase (total protein, phospho-tyrosine, mobility shift): PhosFluor is an avid substrate for PKC and Src
4 | cell division control protein 2 (cdc2) | serine and threonine sites on PhosFluor are phosphorylated by PKA, PKC, mitogen-activated protein kinase (MAPK), cell division control protein 2 (cdc2), and Akt1 |  | fluorescence intensity of PhosFluor incubated with kinase: The fluorescence intensity of PhosFluor also increased above background levels when the protein was incubated with cdc2 and MAPK (data not shown)
5 | Akt1 | serine and threonine sites on PhosFluor are phosphorylated by PKA, PKC, mitogen-activated protein kinase (MAPK), cell division control protein 2 (cdc2), and Akt1 | A marked shift in the emission spectrum of PhosFluor was observed when this molecule was incubated with PKA, PKC or Akt1 | excitation spectrum of PhosFluor: the excitation spectrum of PhosFluor was dramatically altered upon phosphorylation by different protein kinases, including Akt1
6 | alkaline phosphatase |  |  | fluorescence intensity of PhosFluor over time: This treatment virtually abolished the increase in fluorescence intensity of PhosFluor over time
7 | protein kinase C (PKC) | serine and threonine sites on PhosFluor are phosphorylated by PKA, PKC, mitogen-activated protein kinase (MAPK), cell division control protein 2 (cdc2), and Akt1 | A marked shift in the emission spectrum of PhosFluor was observed when this molecule was incubated with PKA, PKC or Akt1 | SDS-PAGE and immunoblot of PhosFluor incubated with kinase (total protein, phospho-tyrosine, mobility shift): PhosFluor is an avid substrate for PKC and Src; upward shift of apparent molecular weight on SDS-PAGE: when phosphorylated by PKC, multiple higher molecular weight species of PhosFluor were resolved by SDS-PAGE
